The source of these data is patent US20220324954A1.

The target in assay [1] is human VEGFA (human) (UniProt P15692). Put plainly: cell-based or functional assay.
Assay [2] shares this target. Put plainly: blocking ELISA: VEGFR2 coated, biotinylated VEGFA with antibody dilutions (FIG. 6).

Chain of human VEGFA (human) (P15692 other isoform, or with tags, fused parts or gaps limits assumed): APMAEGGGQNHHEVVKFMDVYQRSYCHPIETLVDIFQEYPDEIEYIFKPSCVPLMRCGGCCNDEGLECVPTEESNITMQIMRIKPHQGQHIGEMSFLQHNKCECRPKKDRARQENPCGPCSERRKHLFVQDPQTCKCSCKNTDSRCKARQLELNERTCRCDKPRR
Chain of Conbercept (Fc fusion) (chain): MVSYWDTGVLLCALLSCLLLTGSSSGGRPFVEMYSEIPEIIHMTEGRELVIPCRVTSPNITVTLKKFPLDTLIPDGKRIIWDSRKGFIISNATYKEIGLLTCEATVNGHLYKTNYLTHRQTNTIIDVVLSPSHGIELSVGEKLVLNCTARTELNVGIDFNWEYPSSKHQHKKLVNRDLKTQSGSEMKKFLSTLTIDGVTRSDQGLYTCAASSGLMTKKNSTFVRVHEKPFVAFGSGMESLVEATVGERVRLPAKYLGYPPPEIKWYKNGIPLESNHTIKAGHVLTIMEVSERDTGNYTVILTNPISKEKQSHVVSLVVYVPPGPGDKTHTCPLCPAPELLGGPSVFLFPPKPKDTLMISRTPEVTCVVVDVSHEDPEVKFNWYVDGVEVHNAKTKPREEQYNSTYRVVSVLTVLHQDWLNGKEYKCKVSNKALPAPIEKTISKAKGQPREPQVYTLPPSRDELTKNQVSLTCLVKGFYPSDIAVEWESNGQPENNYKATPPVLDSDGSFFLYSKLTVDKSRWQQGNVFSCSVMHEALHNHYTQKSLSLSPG
Chain of Eylea (Aflibercept) (Fc fusion) (chain): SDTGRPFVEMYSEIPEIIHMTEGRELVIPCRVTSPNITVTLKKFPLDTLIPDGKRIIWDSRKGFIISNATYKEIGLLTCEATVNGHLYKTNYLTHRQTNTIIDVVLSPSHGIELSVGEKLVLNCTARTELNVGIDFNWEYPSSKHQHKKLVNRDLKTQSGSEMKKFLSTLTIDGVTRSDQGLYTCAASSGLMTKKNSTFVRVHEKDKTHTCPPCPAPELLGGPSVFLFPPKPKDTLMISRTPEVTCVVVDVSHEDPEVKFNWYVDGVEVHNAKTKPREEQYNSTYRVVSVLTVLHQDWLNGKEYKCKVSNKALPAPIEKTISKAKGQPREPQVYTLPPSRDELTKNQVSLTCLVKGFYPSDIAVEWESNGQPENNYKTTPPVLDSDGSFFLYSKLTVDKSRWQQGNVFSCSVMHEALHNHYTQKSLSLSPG

Conbercept (Fc fusion) had an inhibitory effect on HUVEC cell proliferation, IC50 in the assay with human VEGFA (human) [1] of 0.13 µg/mL. The same substance had an IC50 in the assay with human VEGFA (human) [2] of 0.088 µg/mL.
As to Eylea (Aflibercept) (Fc fusion), in the assay with human VEGFA (human) [1], the inhibitory effect on HUVEC cell proliferation, IC50 was 0.066 µg/mL. In the assay with human VEGFA (human) [2], the IC50 amounted to 0.085 µg/mL.

In general, IC50 refers to the concentration that gives 50% inhibition. High values mean weaker potency, low ones greater potency.
